Source: PMC3488048 (The Journal of Biological Chemistry, 2012)
Where no end group is shown, it is not given here.

Target: Kindlin-3 (full-length, C-terminal His6 tag removed, for NMR) (mouse, UniProt Q8K1B8 1-665)
Test: NMR titration

Kindlin-3 (full-length, C-terminal His6 tag removed, for NMR), sequence (Q8K1B8 whole entry): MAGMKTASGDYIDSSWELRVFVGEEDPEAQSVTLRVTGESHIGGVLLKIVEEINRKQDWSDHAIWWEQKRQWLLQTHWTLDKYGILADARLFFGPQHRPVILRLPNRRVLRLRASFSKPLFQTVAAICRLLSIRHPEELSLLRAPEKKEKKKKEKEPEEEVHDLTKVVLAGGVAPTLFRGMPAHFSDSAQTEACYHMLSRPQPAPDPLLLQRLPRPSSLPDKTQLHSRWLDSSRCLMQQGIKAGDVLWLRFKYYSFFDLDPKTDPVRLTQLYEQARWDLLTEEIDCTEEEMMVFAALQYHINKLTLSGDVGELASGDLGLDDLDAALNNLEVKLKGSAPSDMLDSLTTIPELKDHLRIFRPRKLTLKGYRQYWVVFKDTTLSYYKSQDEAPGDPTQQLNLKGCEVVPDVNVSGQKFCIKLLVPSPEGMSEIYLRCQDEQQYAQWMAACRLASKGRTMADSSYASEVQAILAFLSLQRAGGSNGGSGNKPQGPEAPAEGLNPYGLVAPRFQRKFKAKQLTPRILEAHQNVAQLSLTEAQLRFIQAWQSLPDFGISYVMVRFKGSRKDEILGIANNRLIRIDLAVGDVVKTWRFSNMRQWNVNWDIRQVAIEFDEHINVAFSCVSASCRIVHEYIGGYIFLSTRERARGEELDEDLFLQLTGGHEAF

| Kd | Binder |
| --- | --- |
| ~50 µM | KLLMIIHDRREFAKFEKEKMNAKWDTGENPIYKSAVTTVVNPKYEGK (domain or fragment, UniProt P05556-1 752-798, looked up, also: uniformly 15N-labelled) [integrin β1A cytoplasmic tail] |
| ~50 µM | KLLMIIHDRREFAKFEKEKMNAKWDTQENPIYKSPINNFKNPNYGRKAGL (domain or fragment, UniProt P05556-5 752-801, looked up, also: uniformly 15N-labelled) [integrin β1D cytoplasmic tail] |
